{"source": "paper PMC5413942", "about": "“Gating of TonB-dependent transporters by substrate-specific forced remodelling” (Nature Communications, 2017)", "binders": {"B1": {"name": "TonBCTD (globular C-terminal domain of TonB without the linker) (domain or fragment)", "chain": "not shown", "notes": "Gly-Cys between the (His)6 tag and TonBCTD, translated from the printed forward primer (GGATGT); the cysteine is for AFM surface attachment; C-terminal domain of TonB of E. coli; also called TonB C-terminal domain; source: E. coli BL21 (DE3), pET-23a(+), purified (Ni Sepharose, size exclusion chromatography)"}, "B2": {"name": "Ton box peptide from BtuB (TB_(BtuB)) labelled with Alexa Fluor 488 C5 maleimide (peptide)", "peptide": "PDTLVVTANRGSWSC(Alexa Fluor 488 C5 maleimide)", "notes": "also called TB_(BtuB)-Alexa fluor 488; Ton box_(BtuB) peptide; source: synthetic peptide"}, "B3": {"name": "TonB_(ΔTMD) (soluble TonB, residues 33–239, deletion of the N-terminal transmembrane helix) (domain or fragment)", "chain": "not shown", "notes": "Gly-Cys between the (His)6 tag and TonB, translated from the printed forward primer (GGCTGT); the cysteine is for AFM surface attachment; TonB of E. coli, cloned from the genome of E. coli BL21 (DE3), residues 33-239 (without the transmembrane domain, residues 1-32); the forward primer begins at HQVIELP; In the AFM experiments the engineered cysteine was coupled to NHS-PEG24-maleimide on the …"}}, "details_in_all_cases": "both partners purified", "key": {"wild-type BtuB": {"molecular_target": "T1, wild-type BtuB (E. coli, UniProt P06129 21-614)", "T1 construct": "Cyanocobalamin was present at a 100-fold molar excess during reconstitution; also called vitamin B12 TBDT receptor of E. coli", "T1 sequence (looked up)": "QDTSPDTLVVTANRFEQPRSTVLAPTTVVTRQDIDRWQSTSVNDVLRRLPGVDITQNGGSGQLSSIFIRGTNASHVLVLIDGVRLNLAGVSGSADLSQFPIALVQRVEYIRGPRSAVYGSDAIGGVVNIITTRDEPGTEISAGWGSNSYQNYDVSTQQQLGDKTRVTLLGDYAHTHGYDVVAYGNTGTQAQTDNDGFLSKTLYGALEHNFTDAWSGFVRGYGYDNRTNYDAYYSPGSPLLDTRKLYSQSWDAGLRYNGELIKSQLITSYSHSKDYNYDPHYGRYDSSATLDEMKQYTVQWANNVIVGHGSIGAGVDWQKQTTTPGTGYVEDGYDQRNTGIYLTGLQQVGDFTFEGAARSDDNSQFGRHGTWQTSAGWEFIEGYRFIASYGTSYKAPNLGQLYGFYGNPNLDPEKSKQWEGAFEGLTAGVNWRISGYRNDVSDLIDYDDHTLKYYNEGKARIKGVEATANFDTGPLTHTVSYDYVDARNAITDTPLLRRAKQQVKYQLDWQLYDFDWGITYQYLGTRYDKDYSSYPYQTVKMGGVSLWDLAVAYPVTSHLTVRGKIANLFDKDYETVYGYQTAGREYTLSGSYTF", "assay": "single-molecule force spectroscopy (AFM); TonB construct on the AFM probe through NHS-PEG24-maleimide, TBDT (BtuB, its variants or FhuA) in E. coli polar lipid extract liposomes with its ligand adsorbed on mica; dwell 1 s, retraction 1,000 nm s^-1 unless stated otherwise; 25 mM Tris-HCl pH 8.0, 128 mM NaCl, 25 °C; 2 mM DTT added where stated"}, "[1]": {"molecular_target": "B3", "assay": "MST; Alexa Fluor 488-labelled TB_(BtuB) peptide at constant concentration (500 nM mixed 1:1), TonB_(ΔTMD) titrated 7 nM-244 μM in 16 dilutions; 25 mM Tris-HCl pH 7.5, 128 mM NaCl, 5 min at room temperature; fit by the law of mass action"}, "[2]": {"molecular_target": "T2, BtuB3A (BtuB I80A/L85A/L96A) (E. coli, UniProt P06129 21-614, I80A | L85A | L96A)", "T2 sequence (looked up)": "T1 sequence (looked up) with I80A, L85A, L96A", "assay": "single-molecule force spectroscopy (AFM); TonB construct on the AFM probe through NHS-PEG24-maleimide, TBDT (BtuB, its variants or FhuA) in E. coli polar lipid extract liposomes with its ligand adsorbed on mica; dwell 1 s, retraction 1,000 nm s^-1 unless stated otherwise; 25 mM Tris-HCl pH 8.0, 128 mM NaCl, 25 °C; 2 mM DTT added where stated"}, "[3]": {"molecular_target": "T3, BtuB XL_(loop) (BtuB V29C/V45C) (E. coli, UniProt P06129 21-614, V29C | V45C, disulfide bridge between C29 and C45 (reduced on addition of 2 mM DTT))", "T3 sequence (looked up)": "T1 sequence (looked up) with V29C, V45C", "assay": "single-molecule force spectroscopy (AFM); TonB construct on the AFM probe through NHS-PEG24-maleimide, TBDT (BtuB, its variants or FhuA) in E. coli polar lipid extract liposomes with its ligand adsorbed on mica; dwell 1 s, retraction 1,000 nm s^-1 unless stated otherwise; 25 mM Tris-HCl pH 8.0, 128 mM NaCl, 25 °C; 2 mM DTT added where stated"}}, "note": "Positions count from the first letter of the chain named. Where no end group is shown, it is not given here."}
{"binder": "B1", "values": [{"measurement": "binding result", "setting": "wild-type BtuB", "value": "binds"}]}
{"binder": "B2", "values": [{"measurement": "Kd", "setting": "[1]", "value": "9.4 ± 0.3", "unit": "µM"}]}
{"binder": "B3", "values": [{"measurement": "binding result", "setting": "[2]", "value": "binds"}, {"measurement": "binding result", "setting": "[3]", "value": "binds"}]}
